The values that follow come from publication doi:10.1101/402990 (bioRxiv, 2018).

This test concerns the target T1, 6His-Tea3 (S. pombe, UniProt O14248 1-1125).
T1 sequence (looked up): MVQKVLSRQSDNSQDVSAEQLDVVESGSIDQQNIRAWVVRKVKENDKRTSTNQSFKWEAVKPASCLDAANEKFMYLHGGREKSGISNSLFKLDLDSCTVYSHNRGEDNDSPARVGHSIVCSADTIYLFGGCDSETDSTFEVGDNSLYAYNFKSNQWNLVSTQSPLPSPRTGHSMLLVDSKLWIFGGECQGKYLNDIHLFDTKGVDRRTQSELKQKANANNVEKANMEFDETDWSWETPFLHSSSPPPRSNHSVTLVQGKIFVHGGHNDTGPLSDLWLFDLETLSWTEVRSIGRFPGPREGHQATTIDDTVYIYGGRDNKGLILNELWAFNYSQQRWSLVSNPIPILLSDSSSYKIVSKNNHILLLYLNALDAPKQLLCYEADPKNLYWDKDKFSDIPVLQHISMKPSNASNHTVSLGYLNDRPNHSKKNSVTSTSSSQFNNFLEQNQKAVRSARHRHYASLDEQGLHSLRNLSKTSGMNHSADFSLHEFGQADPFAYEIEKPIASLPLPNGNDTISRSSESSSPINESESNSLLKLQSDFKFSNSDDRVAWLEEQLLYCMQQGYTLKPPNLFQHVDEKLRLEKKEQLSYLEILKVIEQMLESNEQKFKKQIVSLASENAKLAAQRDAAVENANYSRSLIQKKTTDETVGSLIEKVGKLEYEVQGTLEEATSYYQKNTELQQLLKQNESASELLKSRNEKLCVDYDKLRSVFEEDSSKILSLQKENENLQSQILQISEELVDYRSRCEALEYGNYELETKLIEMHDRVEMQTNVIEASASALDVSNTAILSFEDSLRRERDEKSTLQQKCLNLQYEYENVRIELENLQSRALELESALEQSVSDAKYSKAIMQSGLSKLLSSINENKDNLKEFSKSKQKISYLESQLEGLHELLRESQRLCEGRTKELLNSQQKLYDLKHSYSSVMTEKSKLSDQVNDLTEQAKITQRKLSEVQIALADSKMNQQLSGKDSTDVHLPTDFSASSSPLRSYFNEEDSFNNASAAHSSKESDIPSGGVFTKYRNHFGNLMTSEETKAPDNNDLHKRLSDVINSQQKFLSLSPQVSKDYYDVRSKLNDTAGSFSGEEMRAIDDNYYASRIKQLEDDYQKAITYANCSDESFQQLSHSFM
Description: pull-down.

B1: GST-Shk1 (enzyme, S. pombe, UniProt P50527 1-658, looked up)
chain: MERGTLQPRKKAPNGYGITPIVAHKTGEPVRYEVEDDLRKLKPSRTAPKPPAINTNLAEDTFSGFPLSQSRTTVSRVSLGSRQHSSSSIRKLQTNVSDVRSYDERNQKKSAFENFVSSMSSFLTGGGSSPTSSYGSGSASPRKSTVISSPFDPKHVTHVGFNYDTGEFTGMPTEWQALLKVSGITKSEQVQHPQAVLDAMAFYSQSKKYLEEGAKPPFPRESTEKPLLSVSALSSSSHLQPTSATSSSSRLYPSRPAPTPPASSSSSPLLSSQTVKTTTSNASRQPSPLVSSKSTDNIIRSHSPVLLTPQTLSTSETKHIRPNNSTPYQRRAETSTKPKAVATPQKVEAPSAPRLQKRAPRQQSNDSAVLAKLQSICNPKNPTLLYRNFVKIGQGASGDVYSARQVGTNLSVAIKKMNINQQPKKEFIVNEILVMKSHHHKNIVNFIDTFFYKSELWMVMEYMRGGSLTEVVTNNTLSEGQIAAICKETLEGLQHLHENGIVHRDIKSDNILLSLQGDIKLTDFGFCAQIDSNMTKRTTMVGTPYWMAPEVVTRKEYGFKVDVWSLGIMAIEMVEGEPPYLNENPLRALYLIATIGTPKISRPELLSSVFHDFLSKSLTVNPKQRPSSGELLRHPFLKQAVPVSSLIPLIKSIHHSGK
Turning to B1, the binding result was “binds”.
